Laboratory results from patent publication US6773917 (CURATORS OF THE UNIVERSITY OF MISSOURI, dated 2004).
One block for each binder: values may come before it.

Key:
[1] = target: T1, plastid pyruvate dehydrogenase heterotetramer (imported plastid PDC E1α and E1β subunits) (Arabidopsis thaliana, UniProt O24457 69-428; Q9C6Z3 74-406); experiment: in vitro import into chloroplasts and assembly
T1 construct: also called this heterotetramer
T1 sequence 1: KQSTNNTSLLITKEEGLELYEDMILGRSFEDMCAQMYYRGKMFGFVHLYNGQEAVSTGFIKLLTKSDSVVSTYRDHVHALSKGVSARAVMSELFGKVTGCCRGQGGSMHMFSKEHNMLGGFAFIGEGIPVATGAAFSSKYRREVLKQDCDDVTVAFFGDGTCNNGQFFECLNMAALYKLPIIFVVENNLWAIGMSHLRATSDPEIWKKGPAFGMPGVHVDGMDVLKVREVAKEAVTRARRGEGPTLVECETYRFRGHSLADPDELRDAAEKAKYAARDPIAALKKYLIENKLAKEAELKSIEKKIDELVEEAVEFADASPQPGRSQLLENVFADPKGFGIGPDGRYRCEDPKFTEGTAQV
T1 sequence 2: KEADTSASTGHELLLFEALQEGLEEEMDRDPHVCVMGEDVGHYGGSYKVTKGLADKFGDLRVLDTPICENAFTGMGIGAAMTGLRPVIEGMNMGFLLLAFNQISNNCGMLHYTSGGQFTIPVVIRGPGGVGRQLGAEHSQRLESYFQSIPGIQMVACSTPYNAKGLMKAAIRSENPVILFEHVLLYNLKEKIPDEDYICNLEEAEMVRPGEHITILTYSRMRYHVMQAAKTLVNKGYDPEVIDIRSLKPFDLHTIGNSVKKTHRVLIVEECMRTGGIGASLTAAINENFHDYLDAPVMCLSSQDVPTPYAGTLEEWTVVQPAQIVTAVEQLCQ

[2] = target: T2, in vitro imported Arabidopsis thaliana plastid PDC E1α subunit (Arabidopsis thaliana, UniProt O24457 69-428); experiment: in vitro import into chloroplasts and assembly
T2 construct: Translated in vitro and imported into chloroplasts
T2 sequence: T1 sequence 1

binding result [1]: binds
B1: in vitro imported Arabidopsis thaliana plastid PDC E2 subunit (enzyme)
chain: IREIFMPALSSTMTEGKIVSWIKTEGEKLAKGESVVVVESDKADMDVETFYDGYLAAIVVGEGETAPVGAAIGLLAETEAEIEEAKSKAASKSSSSVAEAVVPSPPPVTSSPAPAIAQPAPVTAVSDGPRKTVATPYAKKLAKQHKVDIESVAGTGPFGRITASDVETAAGIAPSKSSIAPPPPPPPPVTAKATTTNLPPLLPDSSIVPFTAMQSAVSKNMIESLSVPTFRVGYPVNTDALDALYEKVKPKGVTMTALLAKAAGMALAQHPVVNASCKDGKSFSYNSSINIAVAVAINGGLITPVLQDADKLDLYLLSQKWKELVGKARSKQLQPHEYNSGTFTLSNLGMFGVDRFDAILPPGQGAIMAVGASKPTVVADKDGFFSVKNTMLVNVTADHRIVYGADLAAFLQTFAKIIENPDSLTL
notes: Translated in vitro and imported into chloroplasts; also called imported PDC E2 subunits

binding result [2]: binds
B2: in vitro imported Arabidopsis thaliana plastid PDC E1β subunit (enzyme)
chain: T1 sequence 2
notes: Translated in vitro and imported into chloroplasts
